In patent US20180280528A1, “ANTIFOLATE CONJUGATES FOR TREATING INFLAMMATION” (ENDOCYTE, INC., priority 2015, published 2018):

How the values were obtained:
[1] = Plasma protein binding by ultrafiltration, rat plasma; type: in vitro ADME; details: 500 nM
Method: EC2319 and EC1669 plasma protein binding was evaluated by ultra filtration using VWR 30K MWCO modified PES filters. 250 μL of 500 nM EC2319 or EC1669 in K3EDTA plasma incubated at 37° C. was added to the upper filter vessel. 50 μL was immediately removed as the donor plasma sample and aliquoted into a clean 1.2 mL plate. […] An aliquot of […] plasma ultrafiltrate was then added to the 1.2 mL plate as the receiver sample. To each plasma sample, 50 μL of plasma ultrafiltrate was added, and each ultrafiltrate sample received 50 μL of plasma to mitigate matrix effects. N-Maleoyl-β-alanine, mannitol, and acetic acid were added at the end of each experiment to stabilize the samples prior to LC-MS/MS analysis.

[2] = Release of aminopterin in human hepatic cytosol; type: in vitro ADME; details: 5% human liver cytosol, 1 hour; for pH dependence of aminopterin release from the conjugate: pH 4.5, 6.0, 7.4, 37° C.
Method: EC2319 and EC1669 were incubated in 5% rat, dog, and human hepatic cytosol at different pH's to look at release of aminopterin from these conjugates. Liver cytosols from male Sprague-Dawley rats (Lot No. 1110428), male beagle dogs (Lot no. 1310024), and male humans (Lot No. 0710493), all containing 10 mg/mL protein, were obtained from Xenotech LLC (Lenexa, Kans.). These were diluted 20× in either 0.5 M sodium acetate buffer, pH 4.5, 0.5 M sodium acetate buffer, 6.0, or 0.5 M potassium phosphate buffer, pH 7.4 in a final volume of 500 μL. Reactions were initiated by the addition of 1 μL of either EC2319 or EC1669 and the reaction mixtures incubated at 37° C. for 1 hour. At the end of the incubation, a 100 μL aliquot was withdrawn into a cluster tube and the reaction was terminated by the addition of 5 μL of stabilizer solution (containing 8.5 mg/ml N-Maleoyl-β-alanine, 20 mg/mL mannitol and 0.075% acetic acid) and 100 μL of acetonitrile containing d5-aminopterin. The tubes were vortexed and then centrifuged at 4000 rpm for 10 minutes (Eppendorf centrifuge 5810R). 150 μL of the supernatant was transferred to 96-well plates and the acetonitrile evaporated off under nitrogen at 35° C. for 5 minutes. The extract was diluted with 50 μL of mobile phase A. The plate was vortexed on a VX-2500 multi-tube vortexer (VWR International, Radnor, Pa.) and the extract analyzed by LC-MS/MS.

Pharmacokinetics in dogs = details: beagle, dog, in vivo
Method: (§1) The samples were centrifuged under refrigeration for at least 10 minutes at 3000 rpm and the plasma generated stored at −20° C. until LC-MS/MS analysis.
as §1
LC-MS/MS analysis utilized a Waters Acquity UPLC system paired with a Waters Quattro Premier XE tandem quadrupole mass spectrometer operating in ESI positive mode. Prior to injection, K3EDTA plasma samples were processed using a Phenomenex Strata X-A solid phase extraction (SPE) plate. All plasma samples were fortified with N-Maleoyl-β-alanine, mannitol, and acetic acid. Briefly, 50 μL of plasma diluted with 50 μL of internal standard solution and 500 μL 1000:4:1.5 water:ammonium hydroxide:formic acid was mixed and loaded onto a preconditioned Strata X-A SPE plate. Aqueous and organic washes were then applied followed by elution of all analytes with 300:200:7.5 methanol:water:formic acid. The samples were evaporated until approximately 30 μL remained in all wells and 30 μL of 9:1 water:ammonium hydroxide was then added. Finally, the plate was sealed, mixed, and centrifuged prior to transfer to the 2-8° C. Acquity autosampler. Note: During EC1669 analysis, EC0470 was converted to a hydrazone product for bioanalysis. Acetone (500 μL) was added to all samples after the first evaporation step followed by sealing all wells and heating at 50° C. for one hour. After this step, the acetone was evaporated and the extraction completed as described above.
A 10 μL sample volume was applied to the Waters BEH Shield RP18 100×2.1 mm, […] UPLC column operating at a flow rate of 0.4 mL/min while being maintained at 45° C. A gradient between mobile phase A (1000:4:1.5 water:ammonium hydroxide:formic acid) and mobile phase B (acetonitrile) was used to separate the analytes. The gradient was held at 2% B for the first 30 seconds of the chromatographic run followed by increasing to 20% B by 2.5 minutes. A rapid gradient from 60-90% B is then used to clean the column prior to equilibration at 2% B to complete the 4 minute run cycle.
For EC1669 MS/MS analysis, EC1669 and its known major metabolites, EC1886 and […], were optimized and monitored. […] In all cases, internal standard response was used to generate response ratios for each analyte. When calibrated, data was regressed using MassLynx 4.1 software. The table below lists transitions for analytes and internal standards monitored for LC-MS/MS bioanalysis.

[3] = Incubation with rat TG macrophage cell lysates; type: in vitro ADME; details: rat TG macrophage lysate, pH 4.5, 37° C., 1 hour
Method: Female Lewis rats approximately 200 grams in size (Harlan Laboratories, Indianapolis, Ind.) were injected intraperitoneally at 20 mL/kg of body weight with sterile 7.5% thioglycollate solution (BD Biosciences) supplemented with 12.5% BSA aged for more than 6 months in the presence of 0.5 M D-glucose at 37° C. in the dark according to the procedure of Li et al. (Journal of Immunological Methods (1997) 201:183-188). Three days later these rats were humanely euthanized with CO2 asphyxiation and total peritoneal cells isolated by intraperitoneal lavage with 50 mL of sterile phosphate buffered saline (PBS) containing 0.5 mM EDTA. Red blood cells were lysed with a 5 minute incubation with 1×RBC lysis buffer (BioLegend, San Diego, Calif.). […] Cells were incubated for 2 hrs in 5% CO2. After two hours, floating cells/debris was removed and the adherent cells were washed once with drug free media. Normal growth media (10% FCS RPMI1640) was added to each plate of cells and then incubated for 1, 2 and 3 days in the tissue culture incubator. The adherent cells were harvested using an 8 minute trypsin digest to loosen the cells and then gently scraped off the plate. […] Live cells were counted and then washed once with cold PBS. […]

In the case of N=c1[nH]c(N)nc2ncc(CNc3ccc(C(=O)N[C@@H](CCC(=O)NNC(=O)OCCSSC[C@@H](NC(=O)[C@H](CCC(=O)NC[C@H](O)[C@@H](O)[C@H](O)[C@H](O)CO)NC(=O)[C@@H](CCC(=O)O)NC(=O)[C@H](CCC(=O)NC[C@H](O)[C@@H](O)[C@H](O)[C@H](O)CO)NC(=O)[C@@H](CCC(=O)O)NC(=O)[C@H](CCC(=O)NC[C@H](O)[C@@H](O)[C@H](O)[C@H](O)CO)NC(=O)CC[C@H](NC(=O)c4ccc(NCc5cnc6nc(N)[nH]c(=O)c6n5)cc4)C(=O)O)C(=O)O)C(=O)O)cc3)nc12 [EC1669, reference compound], the plasma protein binding [1] is reported as “high plasma protein binding”, the “pH dependence of aminopterin release from the conjugate” value [2] is reported as “highest at pH 4.5” and the AUC(0-t) (Pharmacokinetics in dogs; sc, 2.4 mg/kg) is reported as 4.07 µM·h. The Cmax (Pharmacokinetics in dogs; sc, 2.4 mg/kg) was 1390 nM, the Tmax (Pharmacokinetics in dogs; sc, 2.4 mg/kg) was 1.19 h and the half-life (Pharmacokinetics in dogs; sc, 2.4 mg/kg) was 0.994 h. For the same compound, the aminopterin release [3] was “greater from EC1669 than from EC2319”.
With COC(=O)[C@H](CSSC(C)(C)[C@H](NC(=O)[C@H](CCC(=O)NC[C@H](O)[C@@H](O)[C@H](O)[C@H](O)CO)NC(=O)[C@H](CCC(=O)O)NC(=O)[C@H](CCC(=O)NC[C@H](O)[C@@H](O)[C@H](O)[C@H](O)CO)NC(=O)[C@H](CCC(=O)O)NC(=O)[C@H](CCC(=O)NC[C@H](O)[C@@H](O)[C@H](O)[C@H](O)CO)NC(=O)CC[C@H](NC(=O)c1ccc(NCc2cnc3nc(N)[nH]c(=O)c3n2)cc1)C(=O)O)C(=O)O)NC(=O)CC[C@H](NC(=O)c1ccc(NCc2cnc3nc(N)nc(N)c3n2)cc1)C(=O)O [EC2319] the plasma protein binding [1] was “higher plasma protein binding than did EC1669”, the “magnitude of aminopterin release” value ([2]; 37° C.) was “lower than that from EC1669” and the “pH dependence of aminopterin release from the conjugate” value [2] was “highest at pH 4.5”. The bioavailability (Pharmacokinetics in dogs; male, 2.43 mg/kg) was 133%, the Tmax (Pharmacokinetics in dogs; male, iv, 1 mg/kg) was 0.03 h and the Vd (Pharmacokinetics in dogs; male, iv, 1 mg/kg) was 0.41 L/kg. It also gave a clearance (Pharmacokinetics in dogs; male, iv, 1 mg/kg) of 4.7 mL/min/kg, a half-life (Pharmacokinetics in dogs; male, iv, 1 mg/kg) of 1.01 h and an AUC(0-t) (Pharmacokinetics in dogs; male, sc, 2.43 mg/kg) of 5.07 µM·h. The half-life (Pharmacokinetics in dogs; male, sc, 2.43 mg/kg) was 1.21 h and the aminopterin release [3] was “aminopterin release was observed”.
